Results reported in article PMC3128119.

Molecular target: T1, SmeT (UniProt Q8KLP4 1-219)
T1 sequence: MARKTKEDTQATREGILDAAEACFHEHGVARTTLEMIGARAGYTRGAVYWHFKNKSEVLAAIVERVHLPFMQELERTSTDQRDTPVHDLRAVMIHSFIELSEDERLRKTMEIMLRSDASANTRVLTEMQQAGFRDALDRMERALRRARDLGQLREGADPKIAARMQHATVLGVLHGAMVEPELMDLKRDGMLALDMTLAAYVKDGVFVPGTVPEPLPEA
Assay: EMSA; 0.2 uM SmeT, 2 nM DNA, no triclosan, 10 mM MgCl2; EMSA: 10 mM Tris-HCl pH 7.2, 50 mM KCl, 10 mM MgCl2, 1 mM EDTA, 50 ug/ml BSA, 1 mM DTT, 5% glycerol, 100 ug/ml poly(dI-dC), room temperature 20 min (+15 min with biocide); 6% gel at 4 C
Details: protein: recombinant; tags: none stated after intein-CBD self-cleavage (pTYB1); chain copies: 2; label: 5' 32P; blunt

B1: 30-bp smeT operator (dsDNA)
DNA 1: GTTTACAAACAAACAAGCATGTATGTATAT
DNA 2: ATATACATACATGCTTGTTTGTTTGTAAAC
Question: Does B1 bind?
Answer: binds
